Where a chain is given by its changes, count along the chain named. Several values for one entry are separate records, joined by “and”; a condition that tells them apart may be missing. Identical values can stand only once.
T1: ADIFAB (Rattus norvegicus, UniProt P02693)
T1 construct: purchased FFA Sciences LLC, San Diego, Calif
T1 sequence (P02693 2-132): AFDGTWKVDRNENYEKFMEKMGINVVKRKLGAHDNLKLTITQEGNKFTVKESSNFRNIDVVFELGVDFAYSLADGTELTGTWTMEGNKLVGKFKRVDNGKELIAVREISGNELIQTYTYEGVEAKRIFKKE

B1: 72F (protein, listed as Rattus norvegicus)
chain: T1 sequence (P02693 2-132) with L72F
modifications: PEPTIDE (1)...(131) wild-type rat intestinal fatty acid binding protein
B2: 21W 72A (protein, listed as Rattus norvegicus)
chain: T1 sequence (P02693 2-132) with M21W, L72A
modifications: PEPTIDE (1)...(131) wild-type rat intestinal fatty acid binding protein
B3: 72S 73P 74I (protein, listed as Rattus norvegicus)
chain: T1 sequence (P02693 2-132) with L72S, A73P, D74I
modifications: PEPTIDE (1)...(131) wild-type rat intestinal fatty acid binding protein
B4: 38Y 62W 117A 72A (protein, listed as Rattus norvegicus)
chain: T1 sequence (P02693 2-132) with L38Y, F62W, L72A, Y117A
modifications: PEPTIDE (1)...(131) wild-type rat intestinal fatty acid binding protein
B5: 18I 31F 72A (protein, listed as Rattus norvegicus)
chain: T1 sequence (P02693 2-132) with M18I, G31F, L72A
modifications: PEPTIDE (1)...(131) wild-type rat intestinal fatty acid binding protein
B6: 72H 73P 74L (protein, listed as Rattus norvegicus)
chain: T1 sequence (P02693 2-132) with L72H, A73P, D74L
modifications: PEPTIDE (1)...(131) wild-type rat intestinal fatty acid binding protein
B7: 72T 73W 74G (protein, listed as Rattus norvegicus)
chain: T1 sequence (P02693 2-132) with L72T, A73W, D74G
modifications: PEPTIDE (1)...(131) wild-type rat intestinal fatty acid binding protein
B8: 38Y 18L 73V 72A (protein, listed as Rattus norvegicus)
chain: T1 sequence (P02693 2-132) with M18L, L38Y, L72A, A73V
modifications: PEPTIDE (1)...(131) wild-type rat intestinal fatty acid binding protein
B9: 119M, 72A (protein, listed as Rattus norvegicus)
chain: T1 sequence (P02693 2-132) with L72A, Y119M
modifications: PEPTIDE (1)...(131) wild-type rat intestinal fatty acid binding protein

What was measured:
Type in all cases: binding
ADIFAB = biological target: T1, ADIFAB; test: ADIFAB screening assay in 96-well plates (emission ratio 505/432)
From the text: In a preferred embodiment, the probe is a fatty acid binding protein (FABP), more preferably a recombinant rat intestinal fatty acid binding protein (rI-FABP), which has been derivatized with acrylodan. DNA and protein sequences for Fatty Acid Binding Proteins (FABPs) are shown in the sequence listing. […] The rat fatty acid binding protein is post-translationally modified in the rat, with the modifications including the removal of the N-terminal methionine and the acetylation of the “new” N-terminal residue Ala. Protein sequences are numbered starting with the first residue of the mature protein. Thus, Ala is residue 1 in the corresponding protein shown as SEQ ID NO: 2. […]
Five identical 96-well plates were prepared with 0.5 μM ADIFAB and 1% dimethyl sulfoxide in 200 μL aqueous buffer (20 mM HEPES, 140 mM NaCl, 5 mM KCl, 1 mM Na2HPO4, pH 7.4) to test assay reproducibility, precision, and quality. Wells were excited at 386 nm and the emission detected at 432 and 505 nm with a fluorescence plate reader connected via fiber optic cables to a standard Spex spectrofluorometer. The emission ratio (505/432), which determines the amount of bound […], was calculated for each well. A positive control (4 μM sodium oleate (OA)) was added to each well and the ratio was measured again. […] The Z′-factor, as defined below, provides a quantitative assessment of the assay [Zhang, J., et al J. Biomol. […]

[1] = Probe fluorescence ratio response to arachidonic acid relative to ADIFAB2; details: response relative to ADIFAB2
Outline: (§1)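 Fluorescently labeled rat intestinal FABP variants were read at two emission wavelengths, near the unbound maximum (about 420 to 480 nm) and the FFA-bound maximum (about 495 to 580 nm). R = Fλ1/Fλ2 after subtracting probe-free intensity; ΔR = R+agent − R0, normalized to ADIFAB2 (rI-FABP-L72A).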

[2] = Probe fluorescence ratio response to linolenic acid relative to ADIFAB2; details: response relative to ADIFAB2
Outline: as §1

[3] = Probe fluorescence ratio response to linoleic acid relative to ADIFAB2; details: response relative to ADIFAB2
Outline: as §1

[4] = Probe fluorescence ratio response to oleic acid relative to ADIFAB2; details: response relative to ADIFAB2
Outline: as §1

[5] = Probe fluorescence ratio response to palmitic acid relative to ADIFAB2; details: response relative to ADIFAB2
Outline: as §1

[6] = Response profile of probe to fatty acids (Table 2)
[7] = Probe fluorescence ratio response to palmitoleic acid relative to ADIFAB2; details: response relative to ADIFAB2
Outline: as §1

[8] = Probe fluorescence ratio response to stearic acid relative to ADIFAB2; details: response relative to ADIFAB2
Outline: as §1

| Molecule | ρc+ average ratio (505/432), Positive Control (+OA) (ADIFAB; 4 μM OA, 0.5 μM ADIFAB, 1% dimethyl sulfoxide, one value per plate 1-5) | ΔR (ADIFAB; 4 μM oleate, positive control) | DR/DR AA ([1]; Arachidonic acid) | DR/DR AA ([1]; arachidonic acid) | DR/DR LNA [2] | DR/DR LA [3] | DR/DR OA [4] | DR/DR PA [5] | response profile [6] | DR/DR POA [7] | DR/DR SA [8] |
| --- | --- | --- | --- | --- | --- | --- | --- | --- | --- | --- | --- |
| CCCCCCCC/C=C\CCCCCCCC(=O)[O-].[Na+] [OA, sodium oleate] | 1.77 and 1.84 and 1.81 and 1.68 and 1.83 | 1.8 | – | – | – | – | – | – | – | – | – |
| B1 | – | – | 0.40 | 0.401 | 0.59 and 0.592 | 0.61 and 0.612 | 0.57 and 0.571 | 0.46 and 0.456 | AA lowest | – | – |
| B2 | – | – | – | 3.829 | 2.550 | 2.551 | 2.808 | 1.637 | Large Response, Favors AA | 2.120 | 1.946 |
| B3 | – | – | – | 2.154 | 3.091 | 2.792 | 2.162 | 2.210 | Favors POA and LNA | 3.155 | 1.337 |
| B4 | – | – | – | 2.353 | 1.237 | 1.848 | 1.896 | 0.316 | Favors AA | 0.272 | 0.854 |
| B5 | – | – | – | 2.043 | 3.027 | 2.707 | 1.761 | 2.037 | Favors LNA | 2.659 | 0.950 |
| B6 | – | – | – | 4.597 | 6.352 | 5.429 | 3.919 | 5.260 | Large Response, Favors | 7.165 | 1.474 |
| B7 | – | – | – | 0.687 | 1.702 | 1.348 | 0.822 | 1.817 | SA and AA lowest | 2.770 | 0.305 |
| B8 | – | – | – | 1.172 | 0.133 | 0.034 | 0.235 | 0.067 | AA and SA | 0.023 | 0.824 |
| B9 | – | – | – | 1.087 | 2.280 | 1.184 | 1.191 | 0.722 | Favors LNA | – | – |

Reference: patent publication US20060257938A1, “Method of screening for drugs that block ligand binding to a lipid binding protein” (priority 2005, published 2006)
